This passage reports Km, kcat and kcat/Km results from article PMC3103430, “RecA Proteins from Deinococcus geothermalis and Deinococcus murrayi - Cloning, Purification and Biochemical Characterisation” (BMC Molecular Biology, 2011).

Substrate in data set [1]: Nc1ncnc2c1ncn2[C@@H]1O[C@H](COP(=O)(O)OP(=O)(O)OP(=O)(O)O)[C@@H](O)[C@H]1O
Briefly: purified protein. Format: biochemical, Deinococcus murrayi. The settings on record: ssDNA-dependent (80-nt oligonucleotide, 12.16 μM nucleotides), 11.56 mM MgCl2, 20 mM Tris-HCl pH 7.5, 37 °C, Hill fit, n 1.1.

Substrate in data set [2]: Nc1ncnc2c1ncn2[C@H]1C[C@H](O)[C@@H](COP(=O)(O)OP(=O)(O)OP(=O)(O)O)O1
Briefly: purified protein. Type of data set: biochemical, Deinococcus murrayi. The following applies: ssDNA-dependent (80-nt oligonucleotide, 12.16 μM nucleotides), 11.56 mM MgCl2, 20 mM Tris-HCl pH 7.5, 37 °C, Hill fit, n 1.0.

As usually defined, the Km is the concentration of substrate that gives half-maximal velocity. By kcat is commonly meant the number of substrate molecules converted per active site and unit of time at saturation. The term kcat/Km denotes the second-order rate constant that governs catalysis at low substrate concentration.

B1: DmuRecA (Deinococcus murrayi) (protein)
chain: MSKDNPKDFGTPSDSKERLKAIETAMTQIEKAFGKGSIMRLGAESKLDVQAVSTGSLSLDLALGVGGIPRGRITEIYGPESGGKTTLALSVIAQAQKAGGTCAFIDAEHALDPVYARSLGVNTDELLVSQPDNGEQRLEIMELLVRSGAIDVVVVDSVAALTPRAEIEGEMGDSLPGLQARLMSQALRKLTAILSKTGTAAIFINQVREKIGVMYGNPETTTGGRALKFYASVRLDVRKIGQPVKMGNDAVGNTVKVKTVKNKVAPPFKEVELTLMYGKGFDQLSDLVTLASDMDIIKKAGSFYSYGEDRLGQGKEKAIAYIAERPELEAEIRERVLSAIKEGRAGDVPGVASVPAVAE
notes: heterogeneous oligomers
In the case of B1, in the data set “purified protein [1]”, the Km was found to be 310 ± 9 µM, the catalytic constant (kcat) turned out to be 0.13 ± 0.004 s⁻¹ and the catalytic efficiency (kcat/Km) came to 430 ± 18 M⁻¹ s⁻¹. In the data set “purified protein [2]”, the Michaelis constant (Km) worked out at 280 ± 7 µM, the kcat amounted to 0.14 ± 0.004 s⁻¹ and the kcat/Km came to 500 ± 25 M⁻¹ s⁻¹.
